Values quoted from earlier work in publication PMC11003968, “Identification of small molecules affecting the interaction between human hemoglobin and Staphylococcus aureus IsdB hemophore” (Scientific Reports, 2024).

Experiments:
[1] = target: oxyhemoglobin dimer (Homo sapiens) (UniProt P69905)
[2] = target: IsdB (Staphylococcus aureus) (UniProt A7X146); assay: SPR
Chain of IsdB (Staphylococcus aureus) (A7X146 41-613): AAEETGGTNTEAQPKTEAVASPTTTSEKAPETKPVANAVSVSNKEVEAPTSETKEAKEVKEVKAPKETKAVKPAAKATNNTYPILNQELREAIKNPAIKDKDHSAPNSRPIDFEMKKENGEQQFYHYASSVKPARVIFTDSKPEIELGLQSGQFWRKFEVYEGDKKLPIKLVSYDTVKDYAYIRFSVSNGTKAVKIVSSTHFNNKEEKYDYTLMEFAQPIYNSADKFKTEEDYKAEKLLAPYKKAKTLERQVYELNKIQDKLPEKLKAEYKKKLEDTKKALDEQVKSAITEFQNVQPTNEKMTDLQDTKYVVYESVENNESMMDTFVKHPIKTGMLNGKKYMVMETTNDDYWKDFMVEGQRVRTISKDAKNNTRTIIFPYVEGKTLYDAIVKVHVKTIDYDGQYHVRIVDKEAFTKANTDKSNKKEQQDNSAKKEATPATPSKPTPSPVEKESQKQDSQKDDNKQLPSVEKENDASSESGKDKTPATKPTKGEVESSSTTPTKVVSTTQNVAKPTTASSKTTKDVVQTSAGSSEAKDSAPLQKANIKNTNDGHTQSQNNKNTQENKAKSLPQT

Chain of hemoglobin (P69905 2-142): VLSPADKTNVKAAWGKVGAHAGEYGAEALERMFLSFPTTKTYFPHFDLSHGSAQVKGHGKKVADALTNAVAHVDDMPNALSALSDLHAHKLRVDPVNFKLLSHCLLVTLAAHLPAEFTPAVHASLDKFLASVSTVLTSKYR
Chain of hemoglobin (P68871 2-147, further chain): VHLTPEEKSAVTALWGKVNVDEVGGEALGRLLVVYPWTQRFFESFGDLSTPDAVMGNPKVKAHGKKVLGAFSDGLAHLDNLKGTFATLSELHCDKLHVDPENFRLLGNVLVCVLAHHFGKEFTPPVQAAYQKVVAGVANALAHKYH
Chain of oxyhemoglobin dimer (P69905 2-142): as the sequence (P69905 2-142) above
Chain of oxyhemoglobin dimer (P68871 2-147, further chain): as the sequence (P68871 2-147, further chain) above

Row | Kd [1] | Substance | Kd [2]
1 | 250 nM | oxyhemoglobin dimer (from UniProt P69905) | –
2 | – | hemoglobin (from UniProt P69905) | 35 nM
